Test results reported in patent publication US20070093415A1.
No end group written: not given here. *: point of attachment. Biotin = O=C1N[C@H]2[C@H](CS[C@H]2CCCCC(=O)*)N1

Experiments:
[1] = biological target: Aβ1-40 amyloid (amyloid form of the Aβ1-40 peptide); assay: ELISA on immobilized Aβ1-40 amyloid, streptavidin-alkaline phosphatase detection
[2] = biological target: Aβ1-40 amyloid (amyloid form of the Aβ1-40 peptide); assay: ELISA on immobilized Aβ1-40 amyloid, FIG. 5

Row | Kd [1] [nM] | concentration below which no significant binding was seen [2] [µM] | Binder
1 | 320 |  | Biotin-AECDWGKGGRWRLWPGASGKTEACGP (also: flanking cysteines can form a disulfide bond)
2 |  | > 5 | Biotin-DWGKGGRWRLWPGASGKTEA
